# Measured values reported in the RNAGym collection of RNA variant scans (doi:10.1101/gr.219683.116).
# B1: mRNA-splicing (parent)
# chain: AGUUGCUGCUGGGAGCUCCAGCACAGUGAAAUGGACAGAAGGGCAGAGCAA
# Variants of: B1
# Assay: exon inclusion enrichment index; higher = more inclusion; WT1 exon 5 minigene, HEK293
row,Variant,exon inclusion enrichment index
1,AGUUAUAUAUGGGAGCUCAUGCACAGUGAAAUGGACAGAAGGGCAGAGCAA [G5A C6U U7A G8U C9A C19A A20U],0.0348
2,AGAGCUUCUCGGGAGCUCCAGCACAGUGAAAUGGACAGAAGGGCAGAGCAA [U3A U4G G5C C6U G8C C9U U10C],0.155
3,AGUUACCACCCAGAGCUCCAGCACAGUGAAAUGGACAGAAGGGCAGAGCAA [G5A U7C G8A U10C G11C G12A],0.351
4,AGUUGCUGCUGGGAUAUCCAGCACAGUGAAAUGGACAGAAGGGCAGAGCAA [G15U C16A],0.0156
5,AGUUCUUCUCGGGAGCUCCAGCACAGUGAAAUGGACAGAAGGGCAGUCCAA [G5C C6U G8C C9U U10C A47U G48C],1.37
6,AGUUCACACAGGGAGCUCCAGCACAGUGAAAUGGACAGAAGAGCAGAGCAA [G5C C6A U7C G8A U10A G42A],0.428
7,AGUUUAUGCUGGGAGCUCCAGCACAGUGAAAUGGACAGAAGGGCAGAGCAA [G5U C6A],0.00655
8,AGUUACCACCGGGAGCUCCAGCACAGUGAGCUGGACAGAAGGGCAGAGCAA [G5A U7C G8A U10C A30G A31C],0.305
9,AGUUCACACAGGGAGCUCCAGCACAGUGAAAUGGAUCGAAGGGCAGAGCAA [G5C C6A U7C G8A U10A C36U A37C],0.0938
10,AGUUCACACAGGGAGCUCCAGCACAGUGAAAUGGACAGAAGGGCCGAGCAA [G5C C6A U7C G8A U10A A45C],0.18
11,AGUUGAAGAAGGGAGCUCCAGCACAGUGAAAUGGACAACAGGGCAGAGCAA [C6A U7A C9A U10A G38A A39C],0.579
12,AGUUGCUGCUGGGAGCUCCAGCAUAGUGAAAUGGACAGAAGGGCAGAGCAA [C24U],0.0472
13,AGUUCUUCUCGGGAGCUCCAGCACAGUGAAAUGGCUAGAAGGGCAGAGCAA [G5C C6U G8C C9U U10C A35C C36U],0.258
14,AGUUCGCACAGGGAGCUCCAGCACAGUGAAAUGGACAGAAGGGCAGAGCAA [G5C C6G U7C G8A U10A],0.449
15,AGUUUCUUUUGGGAGCUCCAGCACAGCAAAAUGGACAGAAGGGCAGAGCAA [G5U G8U C9U U27C G28A],0.135
16,AGUUUCUUUUGGGAGCCCCAGCACAGUGAAAUGGACAGAAGGGCAGAGCAA [G5U G8U C9U U17C],0.0866
17,AGUUGAAGAAGGGAGCUCCAGCACAGUGCCAUGGACAGAAGGGCAGAGCAA [C6A U7A C9A U10A A29C A30C],1.17
18,AGUUGCUGCUGGGAGCUCCAGCACAGUGAAAACGACAGAAGGGCAGAGCAA [U32A G33C],0.181
19,AGUUCACACAGGGAGCUCCGCCACAGUGAAAUGGACAGAAGGGCAGAGCAA [G5C C6A U7C G8A U10A A20G G21C],0.164
20,AGUUAGGGAUGGGAGCUCCAGCACAGUGAAAUGGACAGAAGGACAGAGCAA [G5A C6G U7G C9A G43A],0.00629
21,AGUUUCUUUUCAGAGCUCCAGCACAGUGAAAUGGACAGAAGGGCAGAGCAA [G5U G8U C9U G11C G12A],0.0135
22,AGUUAUAUAUGGGAGCUCCAGCACAGUGAAAUGGGUAGAAGGGCAGAGCAA [G5A C6U U7A G8U C9A A35G C36U],0.00124
23,AGUUCUUCUCGGGAGCUCCAGCACAGUGAAAUGGACAGAAAAGCAGAGCAA [G5C C6U G8C C9U U10C G41A G42A],1.54
24,AGUUCGCGCCGGGAGCUCCAGCACAGUGAAAUGGGGAGAAGGGCAGAGCAA [G5C C6G U7C U10C A35G C36G],0.751
25,AGUUCGCGCCGGGAGCUCCAGCACAGUGAAAUGGACAGAAAUGCAGAGCAA [G5C C6G U7C U10C G41A G42U],2.89
26,AGUUAGGGAUGGGAGCUCCAGCACAGUGAAAUGGACAGAAGUCCAGAGCAA [G5A C6G U7G C9A G42U G43C],0.0126

row,Variant,exon inclusion enrichment index
1,AGUUGAAGAAGGGAGCUCCAGCACAGUGAACUGGACAGAAGGGCAGAGCAA [C6A U7A C9A U10A A31C],0.898
2,AGUUAGGGAUGGGAGCUCCAGCACAGUGAAAUAAACAGAAGGGCAGAGCAA [G5A C6G U7G C9A G33A G34A],0.000844
3,AGUUCACACAGGGAGCUCCAGCACAGUGAAGAGGACAGAAGGGCAGAGCAA [G5C C6A U7C G8A U10A A31G U32A],0.854
4,AGUUUCUUUUGGGAGCUCCAGCACAGUGAAAUGGACAGAUCGGCAGAGCAA [G5U G8U C9U A40U G41C],0.508
5,AGUUAGGGAUGGGAGCUCCAGCACAGUGAAAUGCGCAGAAGGGCAGAGCAA [G5A C6G U7G C9A G34C A35G],0.00232
6,AGUUGCUGCUGGGAGCUCCAGCACAGUUCAAUGGACAGAAGGGCAGAGCAA [G28U A29C],0.0665
7,AGUUGAACGAGGGAGCUCCAGCACAGUGAAAUGGACAGAAGGGCAGAGCAA [C6A U7A G8C C9G U10A],0.781
8,AGUUGCUGCUGGGAGCUCCAGCACAGUGAAAUGGACAGAAGGUCAGAGCAA [G43U],0.11
9,AGUUCGCGCCGGGUACUCCAGCACAGUGAAAUGGACAGAAGGGCAGAGCAA [G5C C6G U7C U10C A14U G15A],1.41
10,AGAAAUAUAUGGGAGCUCCAGCACAGUGAAAUGGACAGAAGGGCAGAGCAA [U3A U4A G5A C6U U7A G8U C9A],0.0823
11,AGUUGCUGCUGGGAGCUCCAGCACAGUGAAAUGGAUGGAAGGGCAGAGCAA [C36U A37G],0.156
12,AGUUAGGGAUGGGAGCUCCAGCAUAGUGAAAUGGACAGAAGGGCAGAGCAA [G5A C6G U7G C9A C24U],0.00094
13,AGUUGCUGCUGGGAGCUCCAGCACAGUGAAAUGUCCAGAAGGGCAGAGCAA [G34U A35C],0.0394
14,AGUUAGGGAUGGGAGCUCCAGCACAGUGAAAUGGACGAAAGGGCAGAGCAA [G5A C6G U7G C9A A37G G38A],0.0012
15,AGUUAUAUAUGGGAGCUCCAGCACAGUGAAAUGGACAGAAUGGCAGAGCAA [G5A C6U U7A G8U C9A G41U],0.077
16,AGUUCUUCUCGGGGACUCCAGCACAGUGAAAUGGACAGAAGGGCAGAGCAA [G5C C6U G8C C9U U10C A14G G15A],1.17
17,AGUUACCACCGGGAGCUCCAGCACAGUGAAAGUGACAGAAGGGCAGAGCAA [G5A U7C G8A U10C U32G G33U],0.923
18,AGUUACGUAUGGGAGCUCCAGCACAGUGAAAUGGACAGAAGGGCAGAGCAA [G5A U7G G8U C9A],0.583
19,AGUUGAAGAAGGGAGCUCCAGCACAGUGAAAUGAACAGAAGGGCAGAGCAA [C6A U7A C9A U10A G34A],0.344
20,AGUUCACACAGGGAGCUCCAGCACAGUGAAAUGGACGGAAGGGCAGAGCAA [G5C C6A U7C G8A U10A A37G],0.237
21,AGUGACUGCUGGGAGCUCCAGCACAGUGAAAUGGACAGAAGGGCAGAGCAA [U4G G5A],0.101
22,AGUUCUUCUCGGGAGCUCCAGCACAGUGAAAUGGACAAUAGGGCAGAGCAA [G5C C6U G8C C9U U10C G38A A39U],0.134
23,AGAAGACGACGGGAGCUCCAGCACAGUGAAAUGGACAGAAGGGCAGAGCAA [U3A U4A C6A U7C C9A U10C],1.08
24,AGUUACCACCGGGAGCUCCAGCACAGUGAAAUGGACAGAGUGGCAGAGCAA [G5A U7C G8A U10C A40G G41U],1.79
25,AGUUGCUGCUAAGAGCUCCAGCACAGUGAAAUGGACAGAAGGGCAGAGCAA [G11A G12A],0.676
